Measured values: patent US20260001928A1 (CORTERIA PHARMACEUTICALS, priority 2022, published 2026)
*1 amine or outer side, *2 acyl side, *3 side chain or, on linkers, in order; H or OH if unused. Where no end group is shown, it is not given here. Side-chain parts run from the residue outwards. [ ]: non-standard residue; d: D form. The star is where a group is joined. C18 diacid = O=C(O)CCCCCCCCCCCCCCCCC(=O)*; C16 diacid = O=C(O)CCCCCCCCCCCCCCC(=O)*; γGlu = O=C(O)[C@H](CCC(=O)[*:2])N[*:1]; NMeI = CC[C@H](C)[C@H](NC)C(=O)O; αMeL = CC(C)C[C@](C)(N)C(=O)O; Pentanoyl = CCCCC(=O)*; AEEA = NCCOCCOCC(=O)O; Aib = CC(C)(N)C(=O)O

T1: CRF1R receptor (UniProt P34998 24-415, limits assumed)
T1 sequence (looked up): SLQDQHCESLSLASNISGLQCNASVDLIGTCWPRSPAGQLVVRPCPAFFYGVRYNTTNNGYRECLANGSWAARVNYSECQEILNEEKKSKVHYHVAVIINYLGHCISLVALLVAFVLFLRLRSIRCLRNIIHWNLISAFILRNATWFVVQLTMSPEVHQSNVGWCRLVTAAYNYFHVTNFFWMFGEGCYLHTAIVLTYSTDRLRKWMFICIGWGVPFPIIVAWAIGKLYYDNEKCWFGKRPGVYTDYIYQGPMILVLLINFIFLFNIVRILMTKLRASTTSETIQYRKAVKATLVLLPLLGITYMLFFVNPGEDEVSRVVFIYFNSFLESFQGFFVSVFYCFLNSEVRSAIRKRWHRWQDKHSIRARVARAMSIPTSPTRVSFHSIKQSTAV

B1: SEQ ID NO 67 (peptide)
peptide: [NMeI]VLSLD[dV]PIK[αMeL]K([γGlu-C16 diacid])KILLEQEKQKKQREQAETNVQILAQV-NH2
modifications: N-terminus assumed
SMILES: CC[C@H](C)[C@H](NC)C(=O)N[C@H](C(=O)N[C@@H](CC(C)C)C(=O)N[C@@H](CO)C(=O)N[C@@H](CC(C)C)C(=O)N[C@@H](CC(=O)O)C(=O)N[C@@H](C(=O)N1CCC[C@H]1C(=O)N[C@H](C(=O)N[C@@H](CCCCN)C(=O)N[C@@](C)(CC(C)C)C(=O)N[C@@H](CCCCNC(=O)CC[C@H](NC(=O)CCCCCCCCCCCCCCC(=O)O)C(=O)O)C(=O)N[C@@H](CCCCN)C(=O)N[C@H](C(=O)N[C@@H](CC(C)C)C(=O)N[C@@H](CC(C)C)C(=O)N[C@@H](CCC(=O)O)C(=O)N[C@@H](CCC(N)=O)C(=O)N[C@@H](CCC(=O)O)C(=O)N[C@@H](CCCCN)C(=O)N[C@@H](CCC(N)=O)C(=O)N[C@@H](CCCCN)C(=O)N[C@@H](CCCCN)C(=O)N[C@@H](CCC(N)=O)C(=O)N[C@@H](CCCNC(=N)N)C(=O)N[C@@H](CCC(=O)O)C(=O)N[C@@H](CCC(N)=O)C(=O)N[C@@H](C)C(=O)N[C@@H](CCC(=O)O)C(=O)N[C@H](C(=O)N[C@@H](CC(N)=O)C(=O)N[C@H](C(=O)N[C@@H](CCC(N)=O)C(=O)N[C@H](C(=O)N[C@@H](CC(C)C)C(=O)N[C@@H](C)C(=O)N[C@@H](CCC(N)=O)C(=O)N[C@H](C(N)=O)C(C)C)[C@@H](C)CC)C(C)C)[C@@H](C)O)[C@@H](C)CC)[C@@H](C)CC)C(C)C)C(C)C
B2: SEQ ID NO 119 (peptide)
peptide: [NMeI]VLSLD[dV]PIK[αMeL]K([AEEA-AEEA-γGlu-C18 diacid])KILLEQEKQKKQREQAETN[Aib]QILAQV-NH2
modifications: N-terminus assumed
SMILES: CC[C@H](C)[C@H](NC)C(=O)N[C@H](C(=O)N[C@@H](CC(C)C)C(=O)N[C@@H](CO)C(=O)N[C@@H](CC(C)C)C(=O)N[C@@H](CC(=O)O)C(=O)N[C@@H](C(=O)N1CCC[C@H]1C(=O)N[C@H](C(=O)N[C@@H](CCCCN)C(=O)N[C@@](C)(CC(C)C)C(=O)N[C@@H](CCCCNC(=O)COCCOCCNC(=O)COCCOCCNC(=O)CC[C@H](NC(=O)CCCCCCCCCCCCCCCCC(=O)O)C(=O)O)C(=O)N[C@@H](CCCCN)C(=O)N[C@H](C(=O)N[C@@H](CC(C)C)C(=O)N[C@@H](CC(C)C)C(=O)N[C@@H](CCC(=O)O)C(=O)N[C@@H](CCC(N)=O)C(=O)N[C@@H](CCC(=O)O)C(=O)N[C@@H](CCCCN)C(=O)N[C@@H](CCC(N)=O)C(=O)N[C@@H](CCCCN)C(=O)N[C@@H](CCCCN)C(=O)N[C@@H](CCC(N)=O)C(=O)N[C@@H](CCCNC(=N)N)C(=O)N[C@@H](CCC(=O)O)C(=O)N[C@@H](CCC(N)=O)C(=O)N[C@@H](C)C(=O)N[C@@H](CCC(=O)O)C(=O)N[C@H](C(=O)N[C@@H](CC(N)=O)C(=O)NC(C)(C)C(=O)N[C@@H](CCC(N)=O)C(=O)N[C@H](C(=O)N[C@@H](CC(C)C)C(=O)N[C@@H](C)C(=O)N[C@@H](CCC(N)=O)C(=O)N[C@H](C(N)=O)C(C)C)[C@@H](C)CC)[C@@H](C)O)[C@@H](C)CC)[C@@H](C)CC)C(C)C)C(C)C
B3: SEQ ID NO 110 (peptide)
peptide: Ac-IVLSLD[dV]PIK[αMeL]K([AEEA-AEEA-γGlu-C18 diacid])KILLEQEKQKKQREQAETN[Aib]QILAQV-NH2
SMILES: CC[C@H](C)[C@H](NC(C)=O)C(=O)N[C@H](C(=O)N[C@@H](CC(C)C)C(=O)N[C@@H](CO)C(=O)N[C@@H](CC(C)C)C(=O)N[C@@H](CC(=O)O)C(=O)N[C@@H](C(=O)N1CCC[C@H]1C(=O)N[C@H](C(=O)N[C@@H](CCCCN)C(=O)N[C@@](C)(CC(C)C)C(=O)N[C@@H](CCCCNC(=O)COCCOCCNC(=O)COCCOCCNC(=O)CC[C@H](NC(=O)CCCCCCCCCCCCCCCCC(=O)O)C(=O)O)C(=O)N[C@@H](CCCCN)C(=O)N[C@H](C(=O)N[C@@H](CC(C)C)C(=O)N[C@@H](CC(C)C)C(=O)N[C@@H](CCC(=O)O)C(=O)N[C@@H](CCC(N)=O)C(=O)N[C@@H](CCC(=O)O)C(=O)N[C@@H](CCCCN)C(=O)N[C@@H](CCC(N)=O)C(=O)N[C@@H](CCCCN)C(=O)N[C@@H](CCCCN)C(=O)N[C@@H](CCC(N)=O)C(=O)N[C@@H](CCCNC(=N)N)C(=O)N[C@@H](CCC(=O)O)C(=O)N[C@@H](CCC(N)=O)C(=O)N[C@@H](C)C(=O)N[C@@H](CCC(=O)O)C(=O)N[C@H](C(=O)N[C@@H](CC(N)=O)C(=O)NC(C)(C)C(=O)N[C@@H](CCC(N)=O)C(=O)N[C@H](C(=O)N[C@@H](CC(C)C)C(=O)N[C@@H](C)C(=O)N[C@@H](CCC(N)=O)C(=O)N[C@H](C(N)=O)C(C)C)[C@@H](C)CC)[C@@H](C)O)[C@@H](C)CC)[C@@H](C)CC)C(C)C)C(C)C
B4: SEQ ID NO 65 (peptide)
peptide: [NMeI]VLSLD[dV]PIK[αMeL]K([γGlu-C16 diacid])KILLEQEKQKKQREQAETN[Aib]QILAQV-NH2
modifications: N-terminus assumed
SMILES: CC[C@H](C)[C@H](NC)C(=O)N[C@H](C(=O)N[C@@H](CC(C)C)C(=O)N[C@@H](CO)C(=O)N[C@@H](CC(C)C)C(=O)N[C@@H](CC(=O)O)C(=O)N[C@@H](C(=O)N1CCC[C@H]1C(=O)N[C@H](C(=O)N[C@@H](CCCCN)C(=O)N[C@@](C)(CC(C)C)C(=O)N[C@@H](CCCCNC(=O)CC[C@H](NC(=O)CCCCCCCCCCCCCCC(=O)O)C(=O)O)C(=O)N[C@@H](CCCCN)C(=O)N[C@H](C(=O)N[C@@H](CC(C)C)C(=O)N[C@@H](CC(C)C)C(=O)N[C@@H](CCC(=O)O)C(=O)N[C@@H](CCC(N)=O)C(=O)N[C@@H](CCC(=O)O)C(=O)N[C@@H](CCCCN)C(=O)N[C@@H](CCC(N)=O)C(=O)N[C@@H](CCCCN)C(=O)N[C@@H](CCCCN)C(=O)N[C@@H](CCC(N)=O)C(=O)N[C@@H](CCCNC(=N)N)C(=O)N[C@@H](CCC(=O)O)C(=O)N[C@@H](CCC(N)=O)C(=O)N[C@@H](C)C(=O)N[C@@H](CCC(=O)O)C(=O)N[C@H](C(=O)N[C@@H](CC(N)=O)C(=O)NC(C)(C)C(=O)N[C@@H](CCC(N)=O)C(=O)N[C@H](C(=O)N[C@@H](CC(C)C)C(=O)N[C@@H](C)C(=O)N[C@@H](CCC(N)=O)C(=O)N[C@H](C(N)=O)C(C)C)[C@@H](C)CC)[C@@H](C)O)[C@@H](C)CC)[C@@H](C)CC)C(C)C)C(C)C
B5: SEQ ID NO 125 (peptide)
peptide: Ac-IVLSLD[dV]PIKLK([γGlu-C18 diacid])KILLEQEKQKKQREQAETN[Aib]QILAQV-NH2
SMILES: CC[C@H](C)[C@H](NC(C)=O)C(=O)N[C@H](C(=O)N[C@@H](CC(C)C)C(=O)N[C@@H](CO)C(=O)N[C@@H](CC(C)C)C(=O)N[C@@H](CC(=O)O)C(=O)N[C@@H](C(=O)N1CCC[C@H]1C(=O)N[C@H](C(=O)N[C@@H](CCCCN)C(=O)N[C@@H](CC(C)C)C(=O)N[C@@H](CCCCNC(=O)CC[C@H](NC(=O)CCCCCCCCCCCCCCCCC(=O)O)C(=O)O)C(=O)N[C@@H](CCCCN)C(=O)N[C@H](C(=O)N[C@@H](CC(C)C)C(=O)N[C@@H](CC(C)C)C(=O)N[C@@H](CCC(=O)O)C(=O)N[C@@H](CCC(N)=O)C(=O)N[C@@H](CCC(=O)O)C(=O)N[C@@H](CCCCN)C(=O)N[C@@H](CCC(N)=O)C(=O)N[C@@H](CCCCN)C(=O)N[C@@H](CCCCN)C(=O)N[C@@H](CCC(N)=O)C(=O)N[C@@H](CCCNC(=N)N)C(=O)N[C@@H](CCC(=O)O)C(=O)N[C@@H](CCC(N)=O)C(=O)N[C@@H](C)C(=O)N[C@@H](CCC(=O)O)C(=O)N[C@H](C(=O)N[C@@H](CC(N)=O)C(=O)NC(C)(C)C(=O)N[C@@H](CCC(N)=O)C(=O)N[C@H](C(=O)N[C@@H](CC(C)C)C(=O)N[C@@H](C)C(=O)N[C@@H](CCC(N)=O)C(=O)N[C@H](C(N)=O)C(C)C)[C@@H](C)CC)[C@@H](C)O)[C@@H](C)CC)[C@@H](C)CC)C(C)C)C(C)C

These binders were tested against human corticotropin-releasing factor 2a (CRF2a receptor) (human), Q13324 (assay: cell-based or functional assay).
human corticotropin-releasing factor 2a (CRF2a receptor) (human), Q13324, sequence (Q13324 20-411): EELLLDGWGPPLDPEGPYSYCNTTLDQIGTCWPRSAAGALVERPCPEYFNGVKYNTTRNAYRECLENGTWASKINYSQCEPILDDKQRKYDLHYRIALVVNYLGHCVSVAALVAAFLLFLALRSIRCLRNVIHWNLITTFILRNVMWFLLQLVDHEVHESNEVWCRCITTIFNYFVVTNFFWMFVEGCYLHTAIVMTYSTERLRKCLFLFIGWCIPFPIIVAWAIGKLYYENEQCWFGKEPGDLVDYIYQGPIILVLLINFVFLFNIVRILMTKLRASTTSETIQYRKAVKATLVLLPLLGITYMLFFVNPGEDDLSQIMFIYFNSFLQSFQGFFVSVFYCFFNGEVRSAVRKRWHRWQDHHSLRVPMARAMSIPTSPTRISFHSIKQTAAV

EC50 [nM] (cAMP)	Binder
0.34 nM	B1
0.7 nM	Pentanoyl-VLSLD[dV]PIK[αMeL]K([AEEA-AEEA-γGlu-C18 diacid])KILLEQEKQKKQREQAETN[Aib]QILAQV-NH2 [SEQ ID NO 123]
0.38 nM	Pentanoyl-VLSLD[dV]PIK[αMeL]K([AEEA-AEEA-γGlu-C18 diacid])KILLEQEKQKKQREQAETNVQILAQV-NH2 [SEQ ID NO 124]
1.62 nM	B2
0.3 nM	B3
0.1 nM	B4
0.15 nM	B5

The binders below were run against T1, CRF1R receptor (assay: cell-based or functional assay).

Emax (% I)	Binder
8%	B1
14%	Pentanoyl-VLSLD[dV]PIK[αMeL]K([AEEA-AEEA-γGlu-C18 diacid])KILLEQEKQKKQREQAETN[Aib]QILAQV-NH2 [SEQ ID NO 123]
14%	Pentanoyl-VLSLD[dV]PIK[αMeL]K([AEEA-AEEA-γGlu-C18 diacid])KILLEQEKQKKQREQAETNVQILAQV-NH2 [SEQ ID NO 124]
5%	B2
9%	B3
10%	B4
18%	B5
